Test results taken from US20220259593A1, “CONTROL OF MAMMALIAN GENE DOSAGE USING CRISPR” (The Regents of the University of California, priority 2019, published 2022).
Positions count from the first letter of the chain named.

B1: cr450 (nucleic acid)
guide: GTTTAAGAGCTAAGCTGGAAACAGCATAGCAAGTTTAAATAAGGCTAGTCCGTTATCAACTTGAGAAAGTGGCGCCGAGTCGGCGCT
modifications: listed as DNA, chemistry not fully specified
B2: cr116 (nucleic acid)
guide: B1 guide with T61G, G65A, A68C, G74A, C84T
modifications: listed as DNA, chemistry not fully specified
B3: cr612 (nucleic acid)
guide: B1 guide with A20T, G65A, G74A, C84T
modifications: listed as DNA, chemistry not fully specified
B4: cr284 (nucleic acid)
guide: B1 guide with G74A, G77A, C81T, C84T
modifications: listed as DNA, chemistry not fully specified
B5: cr703 (nucleic acid)
guide: B1 guide with A66G, G74A, C84T
modifications: listed as DNA, chemistry not fully specified
B6: cr371 (nucleic acid)
guide: B1 guide with T54C, T56G, G65A, G74A, G79C, C84T
modifications: listed as DNA, chemistry not fully specified
B7: cr291 (nucleic acid)
guide: B1 guide with G65A, G72C, G74A, C75T, G83A, C84T, C86G
modifications: listed as DNA, chemistry not fully specified
B8: cr243 (nucleic acid)
guide: B1 guide with T62C, G65A, A67G, G74C, C76T, G82A, C84G
modifications: listed as DNA, chemistry not fully specified
B9: cr908 (nucleic acid)
guide: B1 guide with G74A, C75T, G83A, C84T
modifications: listed as DNA, chemistry not fully specified
B10: cr361 (nucleic acid)
guide: B1 guide with G17C, G65A, G74A, C84T
modifications: listed as DNA, chemistry not fully specified
B11: cr693 (nucleic acid)
guide: B1 guide with G65A, G74T, G77A, C81T, C84A
modifications: listed as DNA, chemistry not fully specified
B12: cr780 (nucleic acid)
guide: B1 guide with T62G, G65A, A67C, G74A, G77T, C81A, C84T
modifications: listed as DNA, chemistry not fully specified
B13: cr822 (nucleic acid)
guide: B1 guide with T49A, G65A, A66C, G74A, C84T
modifications: listed as DNA, chemistry not fully specified
B14: cr546 (nucleic acid)
guide: B1 guide with C60A, G69T, G74A, C84T
modifications: listed as DNA, chemistry not fully specified
B15: cr983 (nucleic acid)
guide: B1 guide with G65A, C73T, G74A, C84T
modifications: listed as DNA, chemistry not fully specified
B16: cr253 (nucleic acid)
guide: B1 guide with A59G, T61C, G65A, A68G, T70C, G74A, G77T, C81A, C84T
modifications: listed as DNA, chemistry not fully specified
B17: cr614 (nucleic acid)
guide: B1 guide with G18A, G65A, G74A, C84T
modifications: listed as DNA, chemistry not fully specified
B18: cr421 (nucleic acid)
guide: B1 guide with G65A, A68C, G74A, C84T
modifications: listed as DNA, chemistry not fully specified
B19: cr719 (nucleic acid)
guide: B1 guide with G65A, G74A, C84T, C86A
modifications: listed as DNA, chemistry not fully specified
B20: cr630 (nucleic acid)
guide: B1 guide with A55G, T56C, G65A, G74A, G79C, C84T
modifications: listed as DNA, chemistry not fully specified
B21: cr304 (nucleic acid)
guide: B1 guide with C60T, G69A, G74A, C84T
modifications: listed as DNA, chemistry not fully specified
B22: cr529 (nucleic acid)
guide: B1 guide with G65A, G74A, C76T, G82A, C84T
modifications: listed as DNA, chemistry not fully specified
B23: cr231 (nucleic acid)
guide: B1 guide with T49A, G74A, C84T
modifications: listed as DNA, chemistry not fully specified
B24: cr142 (nucleic acid)
guide: B1 guide with G65A, G74A, G77T, C81A, C84T
modifications: listed as DNA, chemistry not fully specified
B25: cr576 (nucleic acid)
guide: B1 guide with T16C, G65A, G74A, C84T
modifications: listed as DNA, chemistry not fully specified
B26: cr577 (nucleic acid)
guide: B1 guide with A28G, A42G, A55C, G65A, G74A, C84T
modifications: listed as DNA, chemistry not fully specified
B27: cr375 (nucleic acid)
guide: B1 guide with G17T, G65A, G74A, C84T
modifications: listed as DNA, chemistry not fully specified
B28: cr953 (nucleic acid)
guide: B1 guide with G65A, G74A, A78C, C84T
modifications: listed as DNA, chemistry not fully specified
B29: cr285 (nucleic acid)
guide: B1 guide with C22A, G65A, G74A, C84T
modifications: listed as DNA, chemistry not fully specified
B30: cr718 (nucleic acid)
guide: B1 guide with A59T, G65A, T70A, G74C, C84G
modifications: listed as DNA, chemistry not fully specified
B31: cr553 (nucleic acid)
guide: B1 guide with A47G, G65T, G74A, C84T
modifications: listed as DNA, chemistry not fully specified
B32: cr823 (nucleic acid)
guide: B1 guide with T62A, G65A, A67T, G74A, C76T, G82A, C84T
modifications: listed as DNA, chemistry not fully specified

The molecules below were run on K562 CRISPRi cells (assay: Constant region variant library pooled growth screen, K562). Conditions: sgRNA constant region variants; activity relative to the original, un-modified constant region cr995.
Type: cell-based, human
Description: We calculated relative activities for each targeting sequence:constant region pair by normalizing its phenotype to that of the targeting sequence paired with the unmodified constant region, identifying 409 constant region variants that on average conferred intermediate activity (0.1-0.9, FIG. 5B). Ten variants selected for individual evaluation also mediated intermediate levels of mRNA knockdown (FIG. 6B). Mapping the activities of constant region variants with single base substitutions onto the structure recapitulated known relationships between constant region structure and function (FIG. 5C).
The sequences in the library of modified constant regions were derived from the sgRNA (F+E) optimized sequence (23) modified to include a BlpI site (15). Each modified constant region was paired with 36 sgRNA targeting sequences (3 sgRNAs targeting each of 10 essential genes and six non-targeting negative control sgRNAs). The cloning strategy (described below) allowed the mutation of most positions in the sgRNA constant region. A variety of modifications were made, including substitutions of all single bases not in the BlpI restriction site (which is used for cloning), double substitutions including all substitutions at base-paired position pairs not before or in the BlpI site, and a variety of triple, quadruple, and sextuple substitutions, including base-pair-preserving substitutions at adjacent base-pairs.
The library was ordered and cloned in two parts. One part consisted of ˜100 modifications to the eight bases upstream of the BlpI restriction site. Constant region variants with mutations in this section were paired with each of the 36 targeting sequences, ordered as a pooled oligonucleotide library (Twist Biosciences), and cloned into pCRISPRia-v2 as described above. The second part consisted of ˜900 modifications to the 71 bases downstream of the BlpI restriction site. This part was cloned in two steps. First, all 36 targeting sequences were individually cloned into pCRISPRia-v2 as described above. The vectors were then pooled at an equimolar ratio and digested with BlpI (NEB) and XhoI (NEB). The modified constant region variants were ordered as a pooled oligonucleotide library (Twist Biosciences), PCR amplified with Phusion polymerase (NEB), digested with BlpI (NEB) and XhoI (NEB), and ligated into the digested vector pool, in a manner identical to previously published protocols and as described above, except for the different restriction enzymes.
Screens with the compact mismatched sgRNA library and the constant region library were conducted largely as described above, with smaller modifications during the screening procedure and an updated sequencing library preparation protocol. Briefly, the libraries were transduced in duplicate into K562 CRISPRi (both libraries) or HeLa CRISPRi cells (compact mismatched sgRNA library) as described above. K562 replicates were maintained separately in 0.15 to 0.3 L of RPMI-1640 in 0.3 L spinner flasks for the course of the screen. HeLa replicates were maintained in sets of ten 15-cm plates. Cells were selected with puromycin as described above (K562: 1 day of 0.75 μg/mL and 1 day of 0.85 μg/mL; HeLa: 2 days of 0.8 μg/mL and 1 day of 1 μg/mL). The remainder of the screen was carried out at >1000× library coverage (K562 compact mismatched sgRNA library: >2000×; HeLa compact mismatched sgRNA library: >1000×; K562 constant region library: >2000×). Multiple samples were harvested after 4 to 8 days of growth. For the drug screen, 10 μM lovastatin (ApexBio) or an equivalent volume of DMSO (vehicle) was added to flasks at t=0, and 3 days later cells were pelleted and re-suspended in fresh medium. Lovastatin (12 μM) or DMSO was again added after 5 and 9 days of growth, with media exchanges 3 days after drug supplementation. Multiple samples were harvested after 4 to 8 days for the K562 and HeLa growth screens. […]

Q: Which Mean relative activity does the source give for B1 here?
A: 1.064

Q: Which Mean relative activity does the source give for B2 here?
A: 1.064

Q: With B3 as the molecule, how does the Mean relative activity read?
A: 1.064

Same assay, conditions: sgRNA constant region variants; activity relative to the un-modified constant region cr995

Q: How did the Mean relative activity turn out when B4 was run?
A: 0.9497

Q: Which Mean relative activity does the source give for B5 here?
A: 0.9472

Q: For B6, which Mean relative activity is on record?
A: 0.9355

Q: How did the Mean relative activity turn out when B7 was run?
A: 0.9321

Q: With B8 as the molecule, how does the Mean relative activity read?
A: 0.9319

Q: Which Mean relative activity does the source give for B9 here?
A: 0.9455

Q: With B10 as the molecule, how does the Mean relative activity read?
A: 0.9312

Q: Which Mean relative activity does the source give for B11 here?
A: 0.9369

Q: For B12, which Mean relative activity is on record?
A: 0.9287

Q: B13 was tested. Which Mean relative activity did it give?
A: 0.9333

Q: With B14 as the molecule, how does the Mean relative activity read?
A: 0.9326

Q: Which Mean relative activity does the source give for B15 here?
A: 0.9491

Q: How did the Mean relative activity turn out when B16 was run?
A: 0.9384

Q: With B17 as the molecule, how does the Mean relative activity read?
A: 0.927

Q: Which Mean relative activity does the source give for B18 here?
A: 0.9381

Q: B19 was tested. Which Mean relative activity did it give?
A: 0.9381

Q: With B20 as the molecule, how does the Mean relative activity read?
A: 0.9325

Q: Which Mean relative activity does the source give for B21 here?
A: 0.9285

Q: B22 was tested. Which Mean relative activity did it give?
A: 0.9488

Q: How did the Mean relative activity turn out when B23 was run?
A: 0.9485

Q: B24 was tested. Which Mean relative activity did it give?
A: 0.9406

Q: With B25 as the molecule, how does the Mean relative activity read?
A: 0.935

Q: B26 was tested. Which Mean relative activity did it give?
A: 0.9309

Q: With B27 as the molecule, how does the Mean relative activity read?
A: 0.9294

Q: Which Mean relative activity does the source give for B28 here?
A: 0.9337

Q: With B29 as the molecule, how does the Mean relative activity read?
A: 0.9449

Q: How did the Mean relative activity turn out when B30 was run?
A: 0.9447

Q: Which Mean relative activity does the source give for B31 here?
A: 0.9385

Q: Which Mean relative activity does the source give for B32 here?
A: 0.936
